For this test, the target named is Bim-BH3 peptide. Briefly: SPR; Biacore assay; who was immobilised and the conditions are not stated. The note with it: both partners purified.

Positions count from the first letter of the chain named.

B1: hMcl-1(171–327), wild type (domain or fragment, human, UniProt Q07820 171-327, looked up)
chain: EDELYRQSLEIISRYLREQATGAKDTKPMGRSGATSRKALETLRRVGDGVQRNHETAFQGMLRKLDIKNEDDVKSLSRVMIHVFSDGVTNWGRIVTLISFGAFVAKHLKTINQESCIEPLAESITDVLVRTKRDWLVKQRGWDGFVEFFHVEDLEGG
notes: also called myeloid cell leukemia-1
Molecule B1 had a Kd of around 60 pM.

B2: hMcl-1(171–327) Cys 286 → Ser (domain or fragment, human, UniProt Q07820 171-327, looked up)
chain: B1 chain with C116S
notes: seven nonnative residues LHHHHHH at the C-terminus; The NMR samples were uniformly 13C,15N-labeled (or U-15N, 5% 13C); also called mutant; mutant Cys 286 → Ser
Regarding B2, the Kd was around 60 pM.

The values are drawn from PMC4008586 (PLoS ONE, 2014).
